Results from paper PMC9978964.

Tests used:
Test in all cases: BLI
[1] = biological target: biotinylated FXR NES peptide (amino acids 401–454), T442 non-phosphorylated (human)
[2] = biological target: biotinylated FXR NES peptide (amino acids 401–454), T442 phosphorylated (human)
[3] = biological target: biotinylated FXR NLS peptide (amino acids 191–230), K217 non-acetylated (human)
[4] = biological target: biotinylated FXR NLS peptide (amino acids 191–230), K217 acetylated (human)

Row | Kd [1] [nM] | Kd [2] [nM] | Kd [3] [nM] | Kd [4] [nM] | Substance
1 | 90.1 | 181 |  |  | CRM1 protein used in the BLI assay (from UniProt O14980 1-1071) (natural protein)
2 |  |  | 17.4 | 51 | KPNA3 protein used in the BLI assay (from UniProt O00505 1-521) (natural protein)
